# According to the DeepSol protein solubility set:
# Test: soluble on expression in E. coli; label from the status in PepcDB or PDB records
row,Sequence,soluble on expression in E. coli
1,MLVDHLLARGATDVRALTNHPDKAQLPDSVTVVEGYLRRLGSLPAAFEGVDSLYLAPTPDTAPDALALAKQAGVRHVVDLSGPHDGHWGDVARAVEASGIEWTHLWPGEFMENAGILAPQITAGDTVREPYPTAANAPIAMDDIAEVAAVALLESGHVGASYELTGPETITRAELVRELGAALGRNIEYRQVSLDEAVDVLTPAMGEYARWY,not soluble
2,MLVKPPYSYIALITMAIQNAPEKKITLNGIYQFIMDRFPFYRENKQGWQNSIRHNLSLNECFVKVPRDDKKPGKGSYWTLDPDSYNMFENGSFL,soluble
3,MLVNTKAKVGVFSIALGAYLPQFPSLVPEFEAQYEAFKKTIPDTVEIIDGGMVTTKEQSMVAGDKFRAADVDIVFLQMLTYATSYNMLPAIRDLDVPVVLVNVQKLKALDYDHTDIAAWLGEGYACGAVGEAVADLERAGKRHAVITGVVEGGDPAVQAEIEDWCKAAQVRRRFRDTNIAQIGRPYPGMMDLYIDETNLYNRMFLYTKQFDWEKMWAIADDITDEEAIRAKAQDILDTFDIEDGGTIEKVWDMAKYVVAFEKWVKDEHLSMVASHYDGFAQGKAGVLDSMLIPAFSMLIKQGTACAVEGDMKVAMAMSILKTISGTGQLSEMYSIDFNEDICIIGHSGSGDADISDKKPTMKIVPVFHGKTGGGYLTQFYPYTGPVTYLAITQDKDGHFKFVVAEGVNEEGPILSFGDTNMRTRFTCGAREFVNRWSEAGPTHHMAAATGRHIDTILKVAKIFNIPVDIVTR,not soluble
4,MLWSGCRRFGARLGCLPGGLRVLVQTGHRSLTSCIDPSMGLNEEQKEFQKVAFDFAAREMAPNMAEWDQKELFPVDVMRKAAQLGFGGVYIQTDVGGSGLSRLDTSVIFEALATGCTSTTAYISIHNMCAWMIDSFGNEEQRHKFCPPLCTMEKFASYCLTEPGSGSDAASLLTSAKKQGDHYILNGSKAFISGAGESDIYVVMCRTGGPGPKGISCIVVEKGTPGLSFGKKEKKVGWNSQPTRAVIFEDCAVPVANRIGSEGQGFLIAVRGLNGGRINIASCSLGAAHASVILTRDHLNVRKQFGEPLASNQYLQFTLADMATRLVAARLMVRNAAVALQEERKDAVALCSMAKLFATDECFAICNQALQMHGGYGYLKDYAVQQYVRDSRVHQILEGSNEVMRILISRSLLQE,not soluble
5,MMDGDIIGENEDGIGVDVSDNNEIIHEISIEKGSWEIVYHEQDGYPDKAAKRTPDGNEHVNQARRFARYHVYKERGYETFPWDEHIGYIETVGDAIKSLSTEEFEDYFGEFYETVAGSLSLNSGGDITALFAAIQEKANAYYIDVYLDNDGQVEATSEVRQIIPTDDWQEELESPPEDTDRVPD,not soluble
6,MMEDGNYIINPWVYTDRMGMYRILLEETAMYFAKYGPENEQNLLWGLPLQFGWQYQSGRLADPTGMTDCGNELNESLCVSVDSWWADINYYLSVIPFLAAVDSGITGISPNQITILPPPKDQMRFCYNVSDCQSAVPGTMNRWRDFFQYMQLNSSDFDGLLNYLWEAHASSLDYPTSAFGDRYNFYSEKEANFEENWAIAVNYLAAARLPTTQNRTYSFQRGLPPRVLVDTDIAPFIPDFTPLQNEVLVSLKLLGDTDRNSGSLSLTLWENLMSTKLARTLFLKAFEEFLVTSS,soluble
7,MMEGVRRAVAKFLRGGGVYEKAVDAFVKDLQRELIKADVNVKLVLNVTRRIKERALKEEPPPGVTRRDWMIKIVYEELVKLFGGDQEPQVDPPKTPWIVLLVGVQGSGKTTTAGKLAYYYVRRGYKVGLVSSDTHRPGAYEQLKRLAEEAGAMFYGEREGDPAEIARRGLEDLLSRGAEIVIVDTAGRHGHGEEARLLDEMKAIASKVRPDEVALVIDASIGQKAMGLAERFHKSTPIGSIIVTKMDGTARGGGALTAAAVTGARIKFIGTGETLGELEPFAPRRFVARILGMGDLESLLERIKSLEEAGELDRAAEDVLKGRITMRTIYRQLRAMRKLGPLGKVLQMLPGASMLASIDEGALKLGEEKMKRWMAIIESMTYEELDRPEIIDKRRMRRIAIGSGTSVDDVRELLVYYKNLKTMMKKLKRDKRLLRRLGMEL,soluble
8,MMGLLSTIRGKKEPVVGNGIGSAQVGPLNAKTKKLVIQEWPRVLAQCPELFTEIWHKSATRSTSIKLAFGIAENESPMQNAAFLGLSSTIQAFFYKLIITYELNDDQVREACEQLGARHVDFISRGFNSHFWDIFLVCMAEKIDETLSAYIPDEDKRNEMILAWQRVINSIVHQMRNGYSDRRKQQLGGTKGGSNNGF,not soluble
